According to patent US20220153851A1 (Five Prime, published 2022):

B1: h0302-L0H1 (antibody, human IgG4 S228P, kappa, V domains shown)
VH: QVQLVQSGAEVKKPGSSVKVSCKASGYTFSDFNIHWVRQAPGQGLEWMGYINPYTDVTVYNEKFKGRVTITSDKSTSTAYMELSSLRSEDTAVYYCASYFDGTFDYALDYWGQGTLVTVSS
VL: EIVLTQSPATLSLSPGERATLSCRASESVDNYGLSFMNWYQQKPGQAPRLLIYTASNLESGIPARFSGSGSGTDFTLTISSLEPEDFAVYYCQQSKELPWTFGQGTKVEIKR
notes: also called Ab7; huAb 0302-L0H1
B2: h0302-L2H1 (antibody, human IgG4 S228P, kappa, V domains shown)
VH: QVQLVQSGAEVKKPGSSVKVSCKASGYTFSDFNIHWVRQAPGQGLEWMGYINPYTDVTVYNEKFKGRVTITSDKSTSTAYMELSSLRSEDTAVYYCASYFDGTFDYALDYWGQGTLVTVSS
VL: EIVVTQSPATLSLSPGERATLSCRASESVDNYGLSFMNWFQQKPGQAPRLLIYTASNLESGIPARFSGSGSRTDFTLTISSLEPEDFAVYYCQQSKELPWTFGQGTKVEIKR
notes: also called Ab9; huAb 0302-L2H1

Key:
mCSF1R ECD-Fc = biological target: T1, mCSF1R ECD-Fc (mouse); experiment: ELISA, plate coated with mCSF1R ECD-Fc, detection anti-human kappa-HRP, A450
T1 construct: also called mouse CSF1R ECD
In short: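 Humanized or parental chimeric antibodies, 0.5× serial dilutions from 2000 ng/ml, bound for 90 min at RT to wells coated overnight with 2 μg/ml recombinant mouse CSF1R ECD-Fc; blocked with Blocker-Blotto. Bound antibody detected with HRP anti-human kappa (60 min RT) and o-phenylenediamine substrate, 30 min, A450.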

hCSF1R ECD.506-Fc = biological target: T2, hCSF1R ECD.506-Fc (human); experiment: ELISA, plate coated with human CSF1R ECD-Fc
T2 construct: also called human CSF1R ECD-Fc fusion protein; human CSF1R ECD
In short: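 Binding read as A450 after o-phenylenediamine development (30 min) of peroxidase-conjugated anti-human kappa light chain (60 min, RT). Antibodies, humanized or parental chimeric, were serially halved from 2000 ng/ml and incubated 90 min at RT on wells coated overnight with 1 μg/ml CSF1R ECD-Fc.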

cynoCSF1R ECD-Fc [1] = biological target: T3, cynoCSF1R ECD-Fc (cynomolgus); experiment: competition ELISA, blocking of human CSF1 binding to cynoCSF1R ECD-Fc
T3 construct: also called cynomolgus CSF1R ECD
In short: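 Antibodies in 0.5× serial dilutions from 2000 ng/ml were preincubated 90 min at RT with 50 ng/ml cynoCSF1R ECD-Fc (no leader sequence). The mix was then bound 90 min to plates coated with biotinylated human CSF1 (1 μg/ml). Bound receptor-Fc was detected with peroxidase anti-human Fc and OPD substrate, read at A450.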

cynoCSF1R ECD-Fc [2] = biological target: T3, cynoCSF1R ECD-Fc; experiment: competition ELISA, blocking of human IL34 binding to cynoCSF1R ECD-Fc (curve-fit value far beyond the range tested); blocking of human IL34 binding to cynoCSF1R ECD
Procedure: Recombinant Human CSF1 (M-CSF; R&D Systems) was biotinylated using an NH₂-Biotin Labeling Kit (Dojindo Molecular Technologies). One hundred μl of 1 μg/ml biotinylated CSF1 in PBST/0.1% BSA was added to the wells of Reacti-Bind Streptavidin coated plates (Pierce) pre-blocked with SuperBlock blocking buffer (Pierce) according to the manufacturer's instructions. […] After incubation at RT for 30 min, A450 values of each well were read directly on a SpectraMaxPlus spectrophotometer with SoftMaxPro software (Molecular Devices).
The humanized antibodies were tested for their ability to block human IL34 binding to human CSF1R ECD. The blocking activity of each humanized antibody was determined as described above for blocking of CSF1, except recombinant human IL34 (FivePrime Therapeutics; SEQ ID NO: 68) was biotinylated using an NH2-Biotin Labeling Kit (Dojindo Molecular Technologies), and then 100 μl of 1 μg/ml biotinylated recombinant IL34 in PBST/0.1% BSA was added to the wells of Reacti-Bind Streptavidin coated plates (Pierce) pre-blocked with SuperBlock blocking buffer (Pierce) according to the manufacturer's instructions.

hCSF1R ECD.506 = biological target: T4, hCSF1R ECD.506 (human, UniProt P07333 20-506); experiment: SPR Biacore T100, antibody captured on anti-human IgG, hCSF1R ECD.506 as analyte, 1:1 model
T4 construct: also called human CSF1R ECD
In short: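 Kinetic constants (ka, kd, KD) came from 1:1 model fitting of SPR data with human CSF1R ECD.506 flowed as analyte. Each antibody was captured via immobilized anti-human IgG at 150 RU, giving an Rmax of 100 RU.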

[3] = biological target: T5, human CSF1R on CSF1R (SEQ ID NO: 2)-transfected CHO cells (human, UniProt P07333 20-972); experiment: cell-based or functional assay
[4] = biological target: T5, human CSF1R on CSF1R (SEQ ID NO: …); experiment: cell-based or functional assay; remark: listed apart in the source
cynoCSF1R ECD-Fc [5] = biological target: T3, cynoCSF1R ECD-Fc; experiment: ELISA, plate coated with cynoCSF1R ECD-Fc
In short: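 Humanized or parental chimeric antibodies, serially diluted 0.5× from 2000 ng/ml, bound 90 min at RT to wells coated overnight with 2 μg/ml cyno CSF1R ECD-Fc lacking the leader. A450 after HRP anti-human kappa detection (60 min) and 30 min OPD development gave binding curves.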

[6] = biological target: T5, human CSF1R on CSF1R (SEQ ID NO: …); experiment: cell-based or functional assay; remark: listed apart in the source
cynoCSF1R ECD-Fc [7] = biological target: T3, cynoCSF1R ECD-Fc; experiment: competition ELISA, blocking of human IL34 binding to cynoCSF1R ECD-Fc
cynoCSF1R ECD-Fc [8] = biological target: T3, cynoCSF1R ECD-Fc; experiment: competition ELISA, blocking of human CSF1 binding to cynoCSF1R ECD-Fc (curve-fit value beyond the range tested)
Procedure: Recombinant Human CSF1 (M-CSF; R&D Systems) was biotinylated using an NH₂-Biotin Labeling Kit (Dojindo Molecular Technologies). One hundred μl of 1 μg/ml biotinylated CSF1 in PBST/0.1% BSA was added to the wells of Reacti-Bind Streptavidin coated plates (Pierce) pre-blocked with SuperBlock blocking buffer (Pierce) according to the manufacturer's instructions. Fifty μl of 0.5× serial dilutions of the humanized antibody or parental chimeric antibody, beginning with 2000 ng/ml, was incubated with 50 ng/ml hCSF1R ECD.506-Fc (SEQ ID NO: 6; FivePrime Therapeutics) or 50 ng/ml cynoCSF1R ECD-Fc (FivePrime Therapeutics, SEQ ID NO: 8, but without the 19 amino acid leader sequence) in 100 μl PBST/0.1% BSA for 90 min at RT, after which the admix was transferred to one or more wells of a ligand-coated plate. After 90 min at RT, wells were washed with PBST, and a 1:5000 dilution of an Fc-fragment-specific peroxidase-conjugated goat anti-human IgG (Jackson Immuno Research) in PBST/0.1% BSA was added to each well. After incubation at RT for 60 min, wells were washed with PBST/0.1% BSA, and o-phenylenediamine dihydrochloride peroxidase substrate (Sigma) was added to each well. After incubation at RT for 30 min, A450 values of each well were read directly on a SpectraMaxPlus spectrophotometer with SoftMaxPro software (Molecular Devices).

T4 sequence (P07333 20-506): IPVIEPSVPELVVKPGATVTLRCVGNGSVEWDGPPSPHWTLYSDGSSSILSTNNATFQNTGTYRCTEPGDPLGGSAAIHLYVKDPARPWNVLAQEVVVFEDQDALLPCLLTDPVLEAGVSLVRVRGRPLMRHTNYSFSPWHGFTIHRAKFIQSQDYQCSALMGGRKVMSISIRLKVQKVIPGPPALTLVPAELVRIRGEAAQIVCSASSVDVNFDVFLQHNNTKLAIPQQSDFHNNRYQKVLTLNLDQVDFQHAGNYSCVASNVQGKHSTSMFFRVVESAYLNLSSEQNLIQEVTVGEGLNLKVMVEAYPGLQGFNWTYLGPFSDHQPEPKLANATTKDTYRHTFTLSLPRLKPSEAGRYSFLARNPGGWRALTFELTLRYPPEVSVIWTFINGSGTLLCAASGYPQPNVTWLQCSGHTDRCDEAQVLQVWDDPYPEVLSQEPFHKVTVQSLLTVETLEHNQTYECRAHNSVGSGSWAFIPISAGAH
T5 sequence (P07333 20-972): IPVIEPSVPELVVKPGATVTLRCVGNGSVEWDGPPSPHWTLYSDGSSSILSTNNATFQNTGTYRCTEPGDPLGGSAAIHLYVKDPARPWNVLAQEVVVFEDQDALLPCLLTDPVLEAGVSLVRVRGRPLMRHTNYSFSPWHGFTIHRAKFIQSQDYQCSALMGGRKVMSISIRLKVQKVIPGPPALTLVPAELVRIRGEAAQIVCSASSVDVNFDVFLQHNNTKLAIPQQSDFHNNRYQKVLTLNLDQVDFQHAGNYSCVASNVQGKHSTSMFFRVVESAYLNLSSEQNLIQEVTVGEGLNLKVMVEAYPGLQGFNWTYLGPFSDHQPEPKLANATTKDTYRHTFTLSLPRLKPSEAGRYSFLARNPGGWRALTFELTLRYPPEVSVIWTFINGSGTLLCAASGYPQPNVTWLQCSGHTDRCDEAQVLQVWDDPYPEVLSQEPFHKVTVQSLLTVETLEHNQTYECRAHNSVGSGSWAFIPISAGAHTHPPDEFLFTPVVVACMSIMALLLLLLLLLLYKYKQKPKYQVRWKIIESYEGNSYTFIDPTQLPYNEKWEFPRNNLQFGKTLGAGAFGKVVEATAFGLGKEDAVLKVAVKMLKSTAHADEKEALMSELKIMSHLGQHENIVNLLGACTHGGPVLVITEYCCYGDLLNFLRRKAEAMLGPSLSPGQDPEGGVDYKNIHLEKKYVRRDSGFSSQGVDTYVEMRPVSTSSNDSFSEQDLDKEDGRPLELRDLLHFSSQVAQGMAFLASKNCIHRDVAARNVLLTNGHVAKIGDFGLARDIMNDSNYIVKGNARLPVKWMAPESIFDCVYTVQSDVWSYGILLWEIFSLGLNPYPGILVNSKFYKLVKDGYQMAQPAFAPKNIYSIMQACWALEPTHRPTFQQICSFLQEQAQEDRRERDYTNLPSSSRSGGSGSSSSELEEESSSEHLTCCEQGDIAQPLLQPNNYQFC
T3 sequence (chain, as listed by the source): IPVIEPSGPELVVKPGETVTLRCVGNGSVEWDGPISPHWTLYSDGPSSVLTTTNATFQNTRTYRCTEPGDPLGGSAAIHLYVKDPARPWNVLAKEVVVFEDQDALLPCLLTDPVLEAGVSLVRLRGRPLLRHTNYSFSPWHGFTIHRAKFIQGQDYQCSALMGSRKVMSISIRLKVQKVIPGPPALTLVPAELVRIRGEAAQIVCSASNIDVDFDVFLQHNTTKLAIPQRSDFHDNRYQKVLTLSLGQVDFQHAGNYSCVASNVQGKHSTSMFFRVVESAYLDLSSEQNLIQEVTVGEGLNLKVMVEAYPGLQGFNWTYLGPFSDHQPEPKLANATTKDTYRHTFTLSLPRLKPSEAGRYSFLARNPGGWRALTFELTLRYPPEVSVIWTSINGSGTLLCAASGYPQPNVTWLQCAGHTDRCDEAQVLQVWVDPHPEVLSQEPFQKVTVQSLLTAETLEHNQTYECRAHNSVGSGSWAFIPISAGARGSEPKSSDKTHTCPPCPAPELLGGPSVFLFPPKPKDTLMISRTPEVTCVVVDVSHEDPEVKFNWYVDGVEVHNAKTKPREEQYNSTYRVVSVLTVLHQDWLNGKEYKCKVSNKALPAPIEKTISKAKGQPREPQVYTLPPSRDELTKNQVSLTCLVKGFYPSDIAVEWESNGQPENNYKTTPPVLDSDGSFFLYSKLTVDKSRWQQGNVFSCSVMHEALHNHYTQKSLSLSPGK
T2 sequence (chain, as listed by the source limits assumed): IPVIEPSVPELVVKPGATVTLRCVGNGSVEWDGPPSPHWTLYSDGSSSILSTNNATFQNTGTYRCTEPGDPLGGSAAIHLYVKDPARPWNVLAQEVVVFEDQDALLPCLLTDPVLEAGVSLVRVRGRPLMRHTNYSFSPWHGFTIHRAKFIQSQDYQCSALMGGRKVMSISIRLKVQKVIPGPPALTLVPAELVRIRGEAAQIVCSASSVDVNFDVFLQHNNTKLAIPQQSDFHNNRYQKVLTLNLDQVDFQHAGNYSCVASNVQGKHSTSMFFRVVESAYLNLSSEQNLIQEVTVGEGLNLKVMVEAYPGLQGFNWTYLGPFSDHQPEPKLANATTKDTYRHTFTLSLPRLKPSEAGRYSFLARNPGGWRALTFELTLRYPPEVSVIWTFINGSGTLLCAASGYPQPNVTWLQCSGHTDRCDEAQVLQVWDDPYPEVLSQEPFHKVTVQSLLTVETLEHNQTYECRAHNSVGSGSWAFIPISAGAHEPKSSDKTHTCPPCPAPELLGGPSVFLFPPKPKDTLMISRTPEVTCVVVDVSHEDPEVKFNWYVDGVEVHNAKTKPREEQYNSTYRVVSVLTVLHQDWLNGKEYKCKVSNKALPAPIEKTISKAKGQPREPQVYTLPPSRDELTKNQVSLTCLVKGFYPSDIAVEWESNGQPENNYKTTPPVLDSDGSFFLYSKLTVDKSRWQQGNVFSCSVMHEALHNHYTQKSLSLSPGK
T1 sequence (chain, as listed by the source limits assumed): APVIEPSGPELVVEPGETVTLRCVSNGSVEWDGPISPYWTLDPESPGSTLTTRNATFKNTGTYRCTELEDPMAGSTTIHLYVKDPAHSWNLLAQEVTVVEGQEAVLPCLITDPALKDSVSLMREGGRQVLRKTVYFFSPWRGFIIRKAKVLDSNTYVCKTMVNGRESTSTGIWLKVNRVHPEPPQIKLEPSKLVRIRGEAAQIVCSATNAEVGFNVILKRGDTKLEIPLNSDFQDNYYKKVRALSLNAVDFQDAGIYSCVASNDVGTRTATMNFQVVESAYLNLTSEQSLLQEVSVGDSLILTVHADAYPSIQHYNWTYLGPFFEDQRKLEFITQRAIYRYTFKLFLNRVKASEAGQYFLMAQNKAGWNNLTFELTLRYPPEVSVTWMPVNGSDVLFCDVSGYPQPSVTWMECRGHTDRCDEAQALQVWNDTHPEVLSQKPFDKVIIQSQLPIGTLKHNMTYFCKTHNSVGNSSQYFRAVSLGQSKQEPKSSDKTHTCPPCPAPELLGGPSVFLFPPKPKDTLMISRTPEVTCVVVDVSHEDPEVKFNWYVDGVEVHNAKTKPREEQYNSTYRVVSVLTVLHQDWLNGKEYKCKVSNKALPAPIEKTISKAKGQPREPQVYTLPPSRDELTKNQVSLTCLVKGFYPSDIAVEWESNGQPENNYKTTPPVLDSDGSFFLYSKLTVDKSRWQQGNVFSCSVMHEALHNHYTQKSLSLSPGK

binding result (mCSF1R ECD-Fc)	EC50 (hCSF1R ECD.506-Fc)	IC50 (cynoCSF1R ECD-Fc [1])	IC50 (cynoCSF1R ECD-Fc [2])	Kd (hCSF1R ECD.506)	koff (hCSF1R ECD.506)	kon (hCSF1R ECD.506)	IC50 (read off the curve), IL34-induced CSF1R phosphorylation [3]	IC50 (read off the curve), CSF1-induced CSF1R phosphorylation [4]	EC50 (cynoCSF1R ECD-Fc [5])	IC50, inhibition of CSF1-induced CSF1R phosphorylation (head prints 'Human CSF1/Human CSF1R ECD IC50') [6]	IC50, inhibition of IL34-induced CSF1R phosphorylation (head prints 'Human IL34/Human CSF1R ECD IC50') [6]	IC50 (cynoCSF1R ECD-Fc [7])	IC50 (cynoCSF1R ECD-Fc [8])	Binder
no binding (tested: 2000 ng/ml)	0.0146 µg/mL	0.0155 µg/mL	> 2 µg/mL	1.04 nM	0.00369 s⁻¹	3.54e+06 M⁻¹ s⁻¹	~0.6 µg/mL	~1 µg/mL	0.467 µg/mL	0.928 µg/mL	0.615 µg/mL	–	–	B1
no binding (tested: 2000 ng/ml)	0.00774 µg/mL	–	–	0.57 nM	0.000914 s⁻¹	1.6e+06 M⁻¹ s⁻¹	–	–	0.066 µg/mL	0.384 µg/mL	0.303 µg/mL	0.509 µg/mL	89.8 µg/mL	B2
